B1: antibody 290 (antibody, V domains shown)
VH: QVHLVQSGAEVKKPGASVKVSCAASGYTFNNYGVSWVRQAPGQGLEWMGWISASNGNTKYAQNLQGRVTMTTDTSTSTAYMELRSLRSDDTAVYYCARDLVGPTAPNYYYGMDVWGQGTAVTVSS
VL: QSVLTQPPSVSGAPGQRVTISCTGSSSSIGAGYDVHWYQQLPGTAPKLLIYANSNRPSGVPDRLSGSKSGTSASLAITGLQAEDEADYYCQSYDSSLSGYVFGTGTKVTVL
B2: antibody 315 (antibody, V domains shown)
VH: QVQLVQSGSELKKPGASVKLSCQASGYSFTNHAMNWVRQAPGQGLEWMGWINTNTGNPTYAQGFTGRFVFSLDTSVSTTYLHISSLKAEDTAVYYCARASARPGVATNLDFWGQGTLVVVSS
VL: DIQMTQSPSSLSASVGDRVTITCRASQNIDNYLNWYQQKPGKAPKLLIYAASRLHSGVPSRFSGSGSGTDFTLIISSLQPEDLATYYCQQSYSNPLTFGPGTKVDIR
B3: antibody 306 (antibody, V domains shown)
VH: QVQLVESGGGVVQPGRSLRLSCAASGFTFSSYGMHWVRQAPGKGLEWVAVIWYDGSNKYYADSVKGRFTISRDNSKNTLYLQMNSLRAEDTAVYYCAKDGGYCGGDCYSDGVDYWGQGTLVTVSS
VL: not shown
B4: antibody 299 (antibody, V domains shown)
VH: not shown
VL: EIVLTQSPATLSLSPGERATLSCRASQSVSSYLAWYQQKPGQAPRLLIYDASNRATGIPARFSGSGSGTDFTLTISSLEPEDFAVYYCQQRSNWPWTFGQGTKVEIK
B5: antibody 317 (antibody, V domains shown)
VH: QVQLVQSGAEVKKPGASVKVSCKVSGYTLTELSMHWVRQAPGKGLEWMGGFDPEDGETIYAQKFQGRVTMTEDTSTDTAYMELSSLRSEDTAVYYCASSPAAAGTSQYYYYYGMDVWGQGTTVTVSS
VL: not shown
B6: antibody 267 (antibody, V domains shown)
VH: EVHLVQSGAEMKKPGATVKISCKVSGNTFIDHYIQWVQQAPGKGFEWMGLVDPEDGETIYAEKFQGRVTITADTSRDTAYMELSSLKSEDTAVYYCGTHGDYLDYWGQGTLVTVSS
VL: FYELTQPSSVSVSPGQTALITCSGDVVAKKYARWFQQKAGQAPVLVIYKDTERPSGIPERISGSSSGTTVTLTISGAQVEDEADYYCYSATDNNLVFGGGTKVTVL
B7: antibody 294 (antibody, V domains shown)
VH: EVQLVESGGGLVQPGGSLRLSCAASGFTVSSNYMNWVRQAPGKGLEWVSVIYSGGSTYYADSVKGRFTISRDNSKNTLYLQMNSLRAEDTAVYYCARDLGPSGMDVWGQGTTVTVSS
VL: DIQMTQSPSSVSASVGDRVTITCRASQGISSWLAWYQQKPGKAPKLLIYAASSLQSGVPSRFSGSGSGTDFTLTISSLQPEDFATYYCQQANSFPLFGGGTKVEIK
B8: antibody 270 (antibody, V domains shown)
VH: QVQLVQSGAEVKRPGTSVKVSCKTSGYTFTDHFIHWVRQAPGRRLEWMGWINPNSGGTNYAQNFQGRVTMTRDTSITTAYMDLTRLTSDDTAIYYCAREAAYGSGNLNWFDPWGQGTRVTVSS
VL: NFMLTQPHSVSESPGKTVTISCTGSSGSIAANYVHWYQQRPGSAPRTVIYEDNQRPSGVPDRFSGSIDSSSNSASLTISGLKTEDEADYYCQSYDGDSWVFGGGTKLTVL
B9: antibody 295 (antibody, V domains shown)
VH: QVQLQESGPGLVKPSQTLSLTCTVSGGSISSSDYYWSWIRQPPGKGLEWIGYIYYSGSTYYNPSLKSRVTISVDTSKNQFSLKLSSVTAADTAVYYCARVVGYCSSTSCYVDYWGQGTLVTVSS
VL: EIVLTQSPATLSLSPGERVTLSCRASQSVSSYLAWYQQKPGQAPRLLIYDASNRATGIPARFSGSGSGTDFTLTISSLEPEDFAVYYCQQRSNWPPGLTFGGGTKVEIK
B10: antibody 301 (antibody, V domains shown)
VH: QVQLVQSGAEVKKPGASVKVSCKVSGYTLTELSMHWVRQAPGKGLEWMGGFDPEDGETIYAQKFQGRVTMTEDTSTDTAYMELSSLRSEDTAVYYCATAFCGGDCYPPDALDIWGQGTMVTVSS
VL: DIQMTQSPSSVSASVGDRVTITCRASQGISSWLAWYQQKPGKAPKLLIYAASSLQSGVPSRFSGSGSGTDFTLTISSLQPEDFATYYCQQANSFPLTFGGGTKVEIK
B11: antibody 265 (antibody, V domains shown)
VH: EVQLVQSGAEVKKPGATVKVSCKFSGDTFSHYYIHWVQQAPGKGLEWMGLVDPQDGESEYAQKFQGKVTITADTSIDTSYLEVTSLRFDDTAFYFCATRGMSGAFDRWGQGTLVTVSS
VL: DIVMTQSPDSLAVSLGERATINCKSSQSILSTSNNKNYLAWYQQKPGQPPKLLIYWASTRESGVPDRFSGGGSGTDFTLTISSLQAEDVAVYYCQQYYRTAYTTPIYTFGQGTKLEIK
B12: antibody 288 (antibody, V domains shown)
VH: EVQLVESGGGLVQPGGSLRLSCAASGFTFSSYDMHWVRQATGKGLEWVSAIGTAGDTYYPGSVKGRFTISRENAKNSLYLQMNSLRAGDTAVYYCARGANRDYDILTGYYSYYYYGMDVWGQGTTVTVSS
VL: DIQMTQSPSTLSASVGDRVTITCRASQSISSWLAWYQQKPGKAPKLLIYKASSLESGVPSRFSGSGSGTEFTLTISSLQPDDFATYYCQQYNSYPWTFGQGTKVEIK
B13: antibody 273 (antibody, V domains shown)
VH: QVQLVQSGAEVKKPGASVKVSCKVSGYTLTELSMHWVRQAPGKGLEWMGGFDPEDGETIYAQKFQGRVTMTEDTSTDTAYMELSSLRSEDTAVYYCATAPGYYDSSAPQPINWFDPWGQGTLVTVSS
VL: QSALTQPASVSGSPGQSITISCTGTSSDVGSYNLVSWYQQHPGKAPKLMIYEVSKRPSGVSNRFSGSKSGNTASLTISGLQAEDEADYYCCSYAGSSTLVFGGGTKLTVL
B14: antibody 497 (antibody, V domains shown)
VH: QVQLQESGPGLVKPSQTLSLTCTVSGGSINSFGYYWSWIRQHPGKGLEWIGYIYYSGSTDYNPSLNSRVTISLDTSKNQFLLKLTSVTAADTAVYYCAKLTDYYDSSGYSFDYWGQGTLVTVSS
VL: DIQMTQSPSSVSASVGDRVTITCRASQDISRWLAWYQQKPGKAPKLLIYAASSLQSGVPSRFSGRGSGTELTLTISSLQPEDFATYFCQQAYSFPFTFGGGTKVEIK
B15: antibody 487 (antibody, V domains shown)
VH: QVQLQESGPGLVKPSQTLSLTCTVSGGSISSGGYYWSWIRQHPGKGLEWIGYIYYSGSTYYNPSLKSRVTISVDTSKNQFSLKLSSVTAADTAVYYCARGPLDFWSGYFRLRYFDCWGQGTLVTVSS
VL: QSALTQPASVSGSPGQSITISCTGTSSDVGGYNYVSWYQQHPGKAPKLMIYDVTNRPSGVSNRFSGSKSGNTASLTISGLQAEDEADYYCSSYTSSSTCVFGTGTKVTVL
B16: antibody 496 (antibody, V domains shown)
VH: QVQLVQSGAEVKKPGASVKVSCKASGYTFTDYYIHWVRQAPGQGLEWMGWINPNSGGTNYAQKFQGRLTMTRDTSISTAYMELSRLRSDDTAVYYCARVYSMFREFIINPYYYYYGLDVWGQGTTVTVSS
VL: QSALTQPASVSGSPRQSITISCTGTSSDVGSYNLVSWYQQHPGKAPKLMIYEGSKRPSGVSNRFSGSKSGNTASLAISGLQAEDEANYYCCSYAGSSTLVFGGGTKLTVL

The first assay addresses full-length trimeric SARS-CoV spike protein (SARS-CoV, UniProt P59594 14-1190).
For B1, the “median fluorescence intensity, fold over isotype control” value (“median fluorescence intensity, fold” below) amounted to 1.25 fold over isotype.
On the same count and under the same terms, in the case of B2 it was 1.07 fold over isotype; in that of B3, 1.39 fold over isotype; in that of B4, 1.13 fold over isotype.
Consider B5, for which the “median fluorescence intensity, fold” value was found to be 1.14 fold over isotype.
Take B6: the “median fluorescence intensity, fold” value was found to be 16.9 fold over isotype.
On the same count and under the same terms, next, B7: 1.07 fold over isotype; B8: 1.34 fold over isotype.
Same read-out and setting: in the case of B9 it was 1.24 fold over isotype; in that of B10, 1.45 fold over isotype; in that of B11, 1.09 fold over isotype.
With B12, the “median fluorescence intensity, fold” value amounted to 1 fold over isotype.
Regarding B13, the “median fluorescence intensity, fold” value came to 1.23 fold over isotype.

The target of a further assay is SARS-CoV spike protein (full-length trimeric, on beads) (SARS-CoV, UniProt P59594 14-1190).
In the case of B14, the “bead binding signal, fold over isotype control” value worked out at 1.23 fold over isotype.
Consider B15, for which the “bead binding signal, fold over isotype control” value is 7.25 fold over isotype.
The same measure, in the same setting: next, B16: 1.15 fold over isotype.

These data come from patent US20210292393A1 (published 2021).
